These are literature values, as cited in paper PMC4322731.

The series concerns the target Cys12 (UniProt position 13, SVLFVCLGNIC). Particulars: not stated (discussed as the resting-state thiolate form of the free enzyme).

On to “Bovine heart low molecular weight protein tyrosine phosphatase (BHPTP, LMW-PTP, class II PTP) (Bos taurus)”, for which the pKa result is reported as “less than 4”.
